# According to PMC9482650, “Quantitative fragmentomics allow affinity mapping of interactomes” (Nature Communications, 2022):
# T1: PDZD7_3, Q9H5P4
# T1 sequence (Q9H5P4 857-944, limits assumed, looked up): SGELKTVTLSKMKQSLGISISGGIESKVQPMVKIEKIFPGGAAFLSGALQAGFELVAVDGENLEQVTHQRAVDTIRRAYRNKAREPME
# T2: GRIP1_2, Q9Y3R0
# T2 sequence (Q9Y3R0 145-248, limits assumed, looked up): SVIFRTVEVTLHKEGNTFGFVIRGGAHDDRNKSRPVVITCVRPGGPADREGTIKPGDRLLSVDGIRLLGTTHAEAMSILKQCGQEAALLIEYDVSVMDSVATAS
# T3: DFNB31_1, Q9P202
# T3 sequence (Q9P202 135-233, limits assumed, looked up): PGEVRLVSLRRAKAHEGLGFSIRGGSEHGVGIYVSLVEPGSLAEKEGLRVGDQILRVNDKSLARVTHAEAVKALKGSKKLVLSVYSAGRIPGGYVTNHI
# T4: APBA3_1, O96018
# T4 sequence (O96018 389-490, limits assumed, looked up): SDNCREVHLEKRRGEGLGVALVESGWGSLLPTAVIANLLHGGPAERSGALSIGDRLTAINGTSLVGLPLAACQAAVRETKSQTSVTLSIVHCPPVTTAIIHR
# T5: DVL3, Q92997
# T5 sequence (Q92997 244-331, limits assumed, looked up): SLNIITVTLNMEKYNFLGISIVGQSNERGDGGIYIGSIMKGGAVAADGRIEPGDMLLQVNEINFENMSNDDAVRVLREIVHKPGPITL
# T6: LNX2_2, Q8N448
# T6 sequence (Q8N448 334-432, limits assumed, looked up): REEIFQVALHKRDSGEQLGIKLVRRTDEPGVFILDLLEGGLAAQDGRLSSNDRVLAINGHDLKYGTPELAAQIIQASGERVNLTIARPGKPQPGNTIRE
# T7: CARD11, Q9BXL7
# T7 sequence (Q9BXL7 662-765, limits assumed, looked up): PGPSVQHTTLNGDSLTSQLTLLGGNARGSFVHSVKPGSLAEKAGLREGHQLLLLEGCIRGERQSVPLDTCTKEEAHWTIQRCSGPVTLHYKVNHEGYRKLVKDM
# T8: PDZRN3_1, Q9UPQ7
# T8 sequence (Q9UPQ7 244-349, limits assumed, looked up): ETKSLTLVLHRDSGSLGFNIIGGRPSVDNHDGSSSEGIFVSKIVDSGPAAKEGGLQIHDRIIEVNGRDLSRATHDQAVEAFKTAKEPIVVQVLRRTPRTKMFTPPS
# T9: MPDZ_12, O75970
# T9 sequence (O75970 1857-1958, limits assumed, looked up): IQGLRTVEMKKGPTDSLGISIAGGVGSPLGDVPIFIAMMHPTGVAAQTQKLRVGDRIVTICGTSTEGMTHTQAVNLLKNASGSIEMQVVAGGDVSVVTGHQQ
# T10: HTRA3, P83110
# T10 sequence (P83110 354-453, limits assumed, looked up): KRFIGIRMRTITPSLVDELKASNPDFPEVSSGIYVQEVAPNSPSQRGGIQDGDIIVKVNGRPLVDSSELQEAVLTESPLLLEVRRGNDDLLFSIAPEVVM
# T11: LIN7A, O14910
# T11 sequence (O14910 103-200, limits assumed, looked up): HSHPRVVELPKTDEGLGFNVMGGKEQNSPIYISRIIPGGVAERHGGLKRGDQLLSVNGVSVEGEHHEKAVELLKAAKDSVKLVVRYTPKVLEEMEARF
# Assays:
# Test in all cases: holdup assay
# Set-up in all cases: key: below the threshold = too weak to quantify, mostly under pKd 3.1 to 4
# Conditions in all cases: plain residues with an end cap or a label only (N-terminal biotin on a linker: ado-ado)
# Inadl_9, Q8NI35 = molecular target: Inadl_9, Q8NI35
# Chain of Inadl_9, Q8NI35 (Q8NI35 1530-1615): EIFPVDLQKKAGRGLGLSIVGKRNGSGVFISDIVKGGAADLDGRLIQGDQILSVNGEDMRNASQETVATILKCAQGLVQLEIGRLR
# NHERF4_4, Q86UT5 = molecular target: NHERF4_4, Q86UT5
# Chain of NHERF4_4, Q86UT5 (Q86UT5 464-550): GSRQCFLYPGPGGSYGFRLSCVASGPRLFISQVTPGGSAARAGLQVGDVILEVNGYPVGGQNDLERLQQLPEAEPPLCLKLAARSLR
# MAGI2_5, Q86UL8 = molecular target: MAGI2_5, Q86UL8
# Chain of MAGI2_5, Q86UL8 (Q86UL8 915-1017): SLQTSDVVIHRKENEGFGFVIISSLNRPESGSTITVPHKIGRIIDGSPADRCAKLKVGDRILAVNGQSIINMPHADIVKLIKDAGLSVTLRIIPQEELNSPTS
# DLG2_2, Q15700 = molecular target: DLG2_2, Q15700
# Chain of DLG2_2, Q15700 (Q15700 189-283): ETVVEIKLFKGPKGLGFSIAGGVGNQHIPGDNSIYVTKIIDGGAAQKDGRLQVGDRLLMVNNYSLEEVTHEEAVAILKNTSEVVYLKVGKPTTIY
# SCRIB_3, Q14160 = molecular target: SCRIB_3, Q14160
# Chain of SCRIB_3, Q14160 (Q14160 999-1103): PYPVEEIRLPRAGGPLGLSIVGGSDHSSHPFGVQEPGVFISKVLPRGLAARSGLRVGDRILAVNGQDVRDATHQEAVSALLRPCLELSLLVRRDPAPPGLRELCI
# GRIP2_7, Q9C0E4 = molecular target: GRIP2_7, Q9C0E4
# Chain of GRIP2_7, Q9C0E4 (Q9C0E4 934-1023): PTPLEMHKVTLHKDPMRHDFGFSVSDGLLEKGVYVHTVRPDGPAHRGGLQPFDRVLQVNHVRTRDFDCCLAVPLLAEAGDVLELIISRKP
# LAP2, Q96RT1 = molecular target: LAP2, Q96RT1
# Chain of LAP2, Q96RT1 (Q96RT1 other isoform, or with tags, fused parts or gaps): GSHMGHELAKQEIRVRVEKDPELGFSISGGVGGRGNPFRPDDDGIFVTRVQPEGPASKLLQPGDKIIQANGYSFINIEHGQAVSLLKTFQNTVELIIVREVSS
# GRIP2_3, Q9C0E4 = molecular target: GRIP2_3, Q9C0E4
# Chain of GRIP2_3, Q9C0E4 (Q9C0E4 238-339): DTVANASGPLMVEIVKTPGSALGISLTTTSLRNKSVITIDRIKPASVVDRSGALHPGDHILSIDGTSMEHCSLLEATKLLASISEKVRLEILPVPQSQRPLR
# PDZD7_3, Q9H5P4 = molecular target: T1, PDZD7_3, Q9H5P4
# GRIP1_2, Q9Y3R0 = molecular target: T2, GRIP1_2, Q9Y3R0
# DFNB31_1, Q9P202 = molecular target: T3, DFNB31_1, Q9P202
# GORASP1, Q9BQQ3 = molecular target: GORASP1, Q9BQQ3
# Chain of GORASP1, Q9BQQ3 (Q9BQQ3 1-208): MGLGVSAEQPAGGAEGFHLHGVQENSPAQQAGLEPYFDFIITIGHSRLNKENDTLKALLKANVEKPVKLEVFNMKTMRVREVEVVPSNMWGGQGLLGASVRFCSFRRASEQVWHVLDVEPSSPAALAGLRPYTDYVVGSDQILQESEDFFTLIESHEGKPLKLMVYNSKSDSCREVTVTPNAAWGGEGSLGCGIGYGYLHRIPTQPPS
# APBA3_1, O96018 = molecular target: T4, APBA3_1, O96018
# MAGI1_1, Q96QZ7 = molecular target: MAGI1_1, Q96QZ7
# Chain of MAGI1_1, Q96QZ7 (Q96QZ7 1-106): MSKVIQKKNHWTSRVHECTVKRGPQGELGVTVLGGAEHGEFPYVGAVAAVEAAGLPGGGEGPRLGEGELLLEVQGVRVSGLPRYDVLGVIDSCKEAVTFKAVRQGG
# DVL3, Q92997 = molecular target: T5, DVL3, Q92997
# LNX2_2, Q8N448 = molecular target: T6, LNX2_2, Q8N448
# MAGI2_6, Q86UL8 = molecular target: MAGI2_6, Q86UL8
# Chain of MAGI2_6, Q86UL8 (Q86UL8 1141-1229): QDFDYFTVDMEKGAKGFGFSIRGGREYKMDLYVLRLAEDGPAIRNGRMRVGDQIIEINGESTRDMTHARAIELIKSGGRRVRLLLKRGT
# CARD11, Q9BXL7 = molecular target: T7, CARD11, Q9BXL7
# GRIP2_6, Q9C0E4 = molecular target: GRIP2_6, Q9C0E4
# Chain of GRIP2_6, Q9C0E4 (Q9C0E4 648-740): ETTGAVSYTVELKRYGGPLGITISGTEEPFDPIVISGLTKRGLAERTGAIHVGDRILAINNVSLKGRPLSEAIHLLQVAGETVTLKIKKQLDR
# TJP2_1, Q9UDY2 = molecular target: TJP2_1, Q9UDY2
# Chain of TJP2_1, Q9UDY2 (Q9UDY2 24-128): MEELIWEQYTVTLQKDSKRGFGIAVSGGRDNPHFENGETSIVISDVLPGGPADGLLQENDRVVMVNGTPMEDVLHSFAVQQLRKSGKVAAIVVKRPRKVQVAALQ
# GORASP2, Q9H8Y8 = molecular target: GORASP2, Q9H8Y8
# Inadl_1, Q8NI35 = molecular target: Inadl_1, Q8NI35
# Chain of Inadl_1, Q8NI35 (Q8NI35 113-229): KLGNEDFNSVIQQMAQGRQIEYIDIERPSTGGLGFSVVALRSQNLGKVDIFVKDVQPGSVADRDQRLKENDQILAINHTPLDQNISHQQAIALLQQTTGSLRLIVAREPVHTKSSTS
# PDZRN3_1, Q9UPQ7 = molecular target: T8, PDZRN3_1, Q9UPQ7
# MPDZ_12, O75970 = molecular target: T9, MPDZ_12, O75970
# HTRA3, P83110 = molecular target: T10, HTRA3, P83110
# Inadl_4, Q8NI35 = molecular target: Inadl_4, Q8NI35
# Chain of Inadl_4, Q8NI35 (Q8NI35 547-651): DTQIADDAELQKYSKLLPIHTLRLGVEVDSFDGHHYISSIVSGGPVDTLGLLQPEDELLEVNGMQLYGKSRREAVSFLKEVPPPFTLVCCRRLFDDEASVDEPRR
# LIN7A, O14910 = molecular target: T11, LIN7A, O14910
Binder,"pKd (Inadl_9, Q8NI35)","pKd (NHERF4_4, Q86UT5)","pKd (MAGI2_5, Q86UL8)","pKd (DLG2_2, Q15700)","pKd (SCRIB_3, Q14160)","pKd (GRIP2_7, Q9C0E4)","pKd (LAP2, Q96RT1)","pKd (GRIP2_3, Q9C0E4)","pKd (PDZD7_3, Q9H5P4)","pKd (GRIP1_2, Q9Y3R0)","pKd (DFNB31_1, Q9P202)","pKd (GORASP1, Q9BQQ3)","pKd (APBA3_1, O96018)","pKd (MAGI1_1, Q96QZ7)","pKd (DVL3, Q92997)","pKd (LNX2_2, Q8N448)","pKd (MAGI2_6, Q86UL8)","pKd (CARD11, Q9BXL7)","pKd (GRIP2_6, Q9C0E4)","pKd (TJP2_1, Q9UDY2)",also measured
"SRPRPDDLEI [GJA1, P17302]",below the threshold,below the threshold,below the threshold,below the threshold,below the threshold,below the threshold,below the threshold,below the threshold,below the threshold,below the threshold,below the threshold,below the threshold,below the threshold,below the threshold,below the threshold,below the threshold,below the threshold,below the threshold,below the threshold,below the threshold,"pKd (GORASP2, Q9H8Y8): below the threshold; pKd (Inadl_1, Q8NI35): below the threshold; pKd (PDZRN3_1, Q9UPQ7): below the threshold; pKd (MPDZ_12, O75970): below the threshold; pKd (HTRA3, P83110): below the threshold; pKd (Inadl_4, Q8NI35): below the threshold; pKd (LIN7A, O14910): below the threshold"
"NVYGTESVKI [GRIA3, P42263]",below the threshold,3.95,below the threshold,below the threshold,below the threshold,below the threshold,below the threshold,below the threshold,below the threshold,below the threshold,below the threshold,below the threshold,below the threshold,below the threshold,below the threshold,3.74,below the threshold,below the threshold,below the threshold,below the threshold,"pKd (GORASP2, Q9H8Y8): 3.51; pKd (Inadl_1, Q8NI35): below the threshold; pKd (PDZRN3_1, Q9UPQ7): below the threshold; pKd (MPDZ_12, O75970): below the threshold; pKd (HTRA3, P83110): below the threshold; pKd (Inadl_4, Q8NI35): below the threshold; pKd (LIN7A, O14910): below the threshold"
"RALRASESGI [ADGRE5, P48960]",below the threshold,below the threshold,below the threshold,below the threshold,below the threshold,below the threshold,below the threshold,below the threshold,below the threshold,below the threshold,3.65,below the threshold,below the threshold,below the threshold,below the threshold,below the threshold,below the threshold,below the threshold,below the threshold,below the threshold,"pKd (GORASP2, Q9H8Y8): below the threshold; pKd (Inadl_1, Q8NI35): below the threshold; pKd (PDZRN3_1, Q9UPQ7): below the threshold; pKd (MPDZ_12, O75970): below the threshold; pKd (HTRA3, P83110): below the threshold; pKd (Inadl_4, Q8NI35): below the threshold; pKd (LIN7A, O14910): below the threshold"
"PMESGICTIV [TTC24, A2A3L6]",4.06,below the threshold,4.63,4.87,4.06,below the threshold,below the threshold,below the threshold,5.23,below the threshold,3.65,4.72,below the threshold,below the threshold,3.65,5.56,3.86,below the threshold,below the threshold,3.81,"pKd (GORASP2, Q9H8Y8): 4.64; pKd (Inadl_1, Q8NI35): below the threshold; pKd (PDZRN3_1, Q9UPQ7): 3.48; pKd (MPDZ_12, O75970): below the threshold; pKd (HTRA3, P83110): 3.92; pKd (Inadl_4, Q8NI35): below the threshold; pKd (LIN7A, O14910): below the threshold"
"GCQGETEDVL [PTH2R, P49190]",below the threshold,below the threshold,below the threshold,below the threshold,3.92,below the threshold,below the threshold,below the threshold,below the threshold,below the threshold,below the threshold,below the threshold,below the threshold,below the threshold,below the threshold,below the threshold,below the threshold,below the threshold,below the threshold,below the threshold,"pKd (GORASP2, Q9H8Y8): below the threshold; pKd (Inadl_1, Q8NI35): below the threshold; pKd (PDZRN3_1, Q9UPQ7): below the threshold; pKd (MPDZ_12, O75970): below the threshold; pKd (HTRA3, P83110): below the threshold; pKd (Inadl_4, Q8NI35): below the threshold; pKd (LIN7A, O14910): below the threshold"
